According to the nanobody polyreactivity screen of Harvey et al. (2022):

Test: yeast display, Sf9 membrane polyspecificity reagent, FACS + sequencing; frameworks hold sequencing errors
Outline: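 Nanobodies came from a synthetic yeast display library in Saccharomyces cerevisiae BJ5465, induced with galactose for 36–48 hours and stained for 1 hour at 4 °C with 10% biotinylated, detergent-solubilized Sf9 membrane reagent. Cells were enriched on streptavidin microbeads and then FACS-sorted, with low and high (top ~1%) gates set on anti-HA fluorescence for expression and streptavidin fluorescence for reagent binding. Each polyreactivity label reflects the gate a clone came from. Genes were amplified by colony PCR, sequenced by MiSeq 2 × 250 and filtered by CDR length.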

Sequence | polyreactivity (PSR sort gate)
QVQLVESGGGLVQAGGSLRFSCAASGSIIYFYAMGWYRQAPGKERELVATITSGGRTYYADSVKGRFTISRDTAKNTVYLQMNSLKPEDTAVYYCNRRPVSYRYSSYNYDYLGQGTQVTVSS | high polyreactivity
QVQLVESGGGLVQAGGSLRLSCAASGRTFGYNGMGWYRQAPGKEREFVAAITWSGGRTYYADSVKGRFTISRDKAKNTVYLQMNSLKPEDTAVYYCAAGKYRYTYYALEYDYWGQGTQVTVSS | low polyreactivity
QVQLVESGGGLVQAGGSLRLSCAASGRIFVDYAMGWYRQAPGKERELVAAITRSGDRTYYADSVKGRFTISRDNAKNTVYLQMNSLKPEDTAVYYCATDYPGYDWGQGTQVTVSS | low polyreactivity
QVQLVESGGGLVQAGGSLRLSCAASGRTFFDNAMGWYRQAPGKEREFVAAISYNGGSTYFADSVKGRFTISRDNAKNTVYLQMNSLKPEDTAVYYCAADPNYGYDYWGQGTQVTVSS | low polyreactivity
QVQLVESGGGLVQAGGSLRLSCAASGSILARYAMGWYRQAPGKERELVAAISYNGGSTYYADSVKGRFTISRDNAKNTVYLQMNSRKPEDTAVYYCAKAYDTTLTYNYWGQGTQVTVSS | low polyreactivity
QVQLVESGGGLVQAGGSLRLSCAASGSIFSGNAMGWYRPAPGKERELVAAISSNGGRTYYADSVKGRFTISRDNAKNTVYLQMNSLKPEDTAVYYCAADYGKRRYGYYYWGQGTQVTVSS | high polyreactivity
QVQLVESGGGLVQAGGSLRLSCAASGLIFSHYTMGWYRQAPGKERELVAAITSSGGSTYYADSVKGRFTISRDNAKNTVYLQMNSLKPEDTAVYYCNVDYYEPSWYDDDYWGQGTQVTVSS | low polyreactivity
QVHLLESGGGLVQAGGSLRLSCAASGRTFYDYTMGWYRQAPGKERELVAVISKRGGSTYYADSVKGRFTISRDNAKNTVYLQMNSLKPEDTAVYYCAAKSGRNVYQKVDYWGQGTQVTVSS | high polyreactivity
QVQLVESGGGLVQAGGSLRLSCAASGAMGCYRQAPGKERELVAGITSGGSTNYADSEKGRFTISRDNAKNTVYLQMNSLKPEDTAVYYCNAVGGPRWFSVGWPYDYWGQGTQVTVSS | low polyreactivity
QVQLVESGGGLVQAGGSLRLSCAASGIIFWPYAMGWYRQAPGKERELVASISTGGSTHYADSVKGRFTISRDNAKNTVYLQLNSLKPEDTAVYYCNADVGPTYSYDYWGQGTQVTVSS | low polyreactivity
QVQLVESGGGLVQAGGSLRLSCAASGNTFGFYAMGWYRQAPGKERELVAGITSGDSTYYADSVKGRFTISRDNEKNTVYLQMNSLKPVDTAVYYCNADFTDSYWSRYDYWGQGTQVTVSS | low polyreactivity
QVQLVESGGGLVQAGGSLRLSCAASGSTFDTNAMGWSRQAPGKERELVAAISASGGSTYYADSVKGRFTISRDNAKNTVYLQMNSLKPEDTAVYYCAKTYSTRWWGNGGDYWGQGTQVTVSS | high polyreactivity
QVHLVESGGGLVQAGGSLRLSCDASGSTFGYYAMGWYRQAPGKERELVAAISWNGVSTYYADSVKGRFTISRDNAKNTVYLQMNCLKPEDTAVYYCATVGLRRLFVNPGTLMDYWGEGTQVTVSS | low polyreactivity
QVQLVESGGGLVQAGGSLRLSCAPSGSTFYVNAMGWYRQAPGKEREFVAAITWNSGSTYYADSVKGRFTISRDNAKNTVYLQMNSLKPEDTAVYYCAADGYHYVTYLVSYGYWGQGTQVTVSS | low polyreactivity
QVQLVESGGGLVQAGGSLRLSCAASGIIFGSYAMGWYRQAPGKERELVAAISTSGGSTYYADSVKGRFTISRDNAKNTVYLQMNSLKPEDTAVYYCNKAGVYRDSSRYNYWGQGTQVTVSS | high polyreactivity
QVQLVESGGGLVQAGGSLRLNCAASGSIFDDYAMGWYRQAPGKERELVAAINIRTGSTYYADSVKGRFTISRDNAKNTVYLQMNSLKPEDTAVYYCNRVVRGFVRHLDYWGQGTQVTVSS | low polyreactivity
QVQLVESGGGLVQAGGSLRLSCAASGRIIYIYAMGWYIQAPGKERELVAAITASSGSTNYADSVKGRFTISRDNAKNTVYLQMNSLKPEDTAVYYCAAAPSRTLLRQSKYYYWGQGTQVTVSS | low polyreactivity
QVQLVESGGGLVQAGGSLRLSCAASGSTFWYNDMGWYRQAPGKETELVASISWSGGDTYYADSVKGRFTISRDNAKNTVYLQMNSLKPEDTAVYYCAKGNNWISRLMDYWGQGTQVTVSS | low polyreactivity
QVQLVESGGGLVQAGGSLRLICAASGSILYKYAMGWYRQAPGKERELVAAISSRGGNTYYADSVKGRFTISRDNAKNTVYLHMNSLKPEDTAVYYCAADMWAGKYGEYDYWGQGTQVTVSS | high polyreactivity
QVQLVESGGGLDQAGGSLRLSCAASGFIFRSYTMGWYRQEPRKEREFVPAITWTGGSTYYADSVKGRFTISRDNAKNTVYLQMNSLKPEDTAVYYCNAANWHYSTAPKPYAFDYWGQGTQVTVSS | low polyreactivity
QVQLVESGGGLVQAGGSLRLSCAASGRTLYRNDMGWYIQAPGKERELVARITWSGASTYYADSVKGRFTISRDNAKNSVYLQMKSLKTEDTAVYFCAALYLSRRYGPDDSYNFWGQGTQVTVSS | high polyreactivity
QVQIVESGGGLVQAGGSLRLSCAASGSTFTRYAMGWYRQAPGKERELVAAISRTGGSRTYYADSVNGRFTISRDNAKNTVYLQMNCLKPEDTAVYYCAKGYWRYLGFLYFFPARDYWGQGTQVTVSS | high polyreactivity

Sequence | polyreactivity (PSR sort gate)
QVQLVESGGGLVQAGGSLRLSCAASGFTFYAYAMGWYRPAPGKERELVAALTGRGGSTYYADSVKGRFTISRDNAKNTVYLQMNSLKPEDTAVYYCNKVKQSDKFNNFSNDYWGQGTQVTVSS | high polyreactivity
QVQLVESGGGLVQAGGSLRLSCATSGNIFWRYSIRWYRQAPGKEREFVAGISLRGSSTYYADSVKGRFTISRDNAKNTVYLEMNSLKPEDTAVYYCAVRQPRGSTVFYGGNYWGQGTQVTVSS | low polyreactivity
QVQLVESGGGLVQAGGSLRLSCAASGRIFYLNVMGWYRQAPGKERELVAAITRRDVTTYADSVKGRFTISRDNAKNTVYLQMNSLKPEDTAVYYCNAEYVPYYEYESWGQGTQVTVSS | low polyreactivity
QVQLVESGGGLVQAGGSLRLSCAASGRTFWDYAMGWYRQAPGKERELVAAITGGDSTYADSVKGRFTISRDNAKNTVYLQMNSLKPEDTAVYYCNADSTWDPYVRWALLYEYWGQGTQVTVSS | low polyreactivity
QVQLVESGGGLDQAGGRLRLSCAASGRTFNVNVMGWYRQSPGKERELVAAIRYTGGSTYADSVKGRFTISRDNAKNTVYLQMNSLKPEDTAVDYCNADTFFPFDHGMDYWGQGTQVTVSS | low polyreactivity
QVQLVESGGGLVQAGGSLRLSCAASGSIFLVYAMGWYRQAPGKERELVAVIRWRDGSTYYADSVKGRFTISRDNAMNTVYLQMNSLKPEDTAVYYCAADGVIFEYDYWGQGTQVTVSS | low polyreactivity
QVQIVESGGGLVQAGGSLRLSCASSGSTFVPNDMGSYRQAPWKERELVAAISRSGDDTYYADSVKGRFTISRDNAKNTVYFQMNSLIPEDTAVYYCNAAGRPFFLRPLRWELDYWGQGTQVTVSS | low polyreactivity
QVQLVESGGGLVQAGGSLRLSCGASGSIFRYYTMGWYRQAPGKERELVAAISRSGGSTYYADSVKGRFTISRDNAKNTVYLQMNRLKPEDTAVYYCAARSGYIYEYWGQGTQVTVSS | high polyreactivity
QVQLVESGGGLVQAGGSLRLSCAASGGIFYPYAMGWYRQAPGKERELVASIDVSDGSTYYADSVKGRFTISRDNAKNTVYLQMNSLKPEDTAVYYCAADRYSKAIDFEGDYWGQGTQVTVSS | low polyreactivity
QVQLVESGGGLVQAGGSLRLSCAASGRILPWYAMGWYRQAPGKERELAARIRSTDSTNYADSVKGRFTISRDNAKNTVYLQMNSLKPEDTAVYYCAKVQWGFPYAWLGSDYWGQGTQVTVSS | low polyreactivity
QVQLVESGGGLVQAGGSLRLSCAASGRIFAYYAMGWYRQAPGKERELVAAISRSGVSTYYADSVKGRFTISRDNAKNTVYLQMNSLKPEDTAVYYCDARWRSGFTSVDYWGQGTQVTVSS | low polyreactivity
QVQLVESGGGLVQAGGSLRIICPASGNTFAYYAMGWYRQAPGKEREFVAAISGSGGRTYYADSVKGRFTISRDNAKNTVYLQMNILKPEDTAVYYCNARPAGGQGYGYWGQGTQVTVSS | high polyreactivity
QVQLVESGGGLVQAGGSLRLICAASGIIFYVYAMGWYRQAPGKERELVAAISFRGTSTYADSVKGRFTISRDNAKNTVYLQLNSLKPEDTAVYYCAVTGFDVLWPSLGGVLDYWGQGTQVTVSS | low polyreactivity
QVQLVDSGGGLVQAGGSLRLSCAASGYIFPWYVKGWYRQAPVKERELVAAISWSGGSTYYADSVKGRFTISRDNAKNTVYLQMKSLKPEDTAVYYCNAVRTYRDVSYNSWGQGTQVNVSS | high polyreactivity
QVQLVESGGGLVQAGGSLRLSCAASGSTFYRYTMGWYRQAPGKERELVAAISRSGGRTYYADSVKGRFTISRDKAKNTVSVQMNSLKPEDTAVYYCAAARRYGRYFGYPMEYWGQGTQVTVTS | high polyreactivity
QVQLVESGGGLVQAGGSLRLTCAASGRTFAIYAMGWYRQAPRKEREFFDAISWSGGDTYYADSVKGRFTISRDNAKNTVYLQMNSLKAEDTAVYYCAARYIDYEGRDLQYELDYWGQGTQVSVSS | low polyreactivity
QVQLVESGGGLVQAGGSLRLSCAASGYTFYIYAMGWSRQAPGKERELVATISSSGGGTYYADSVKGRFTISRDNAKNTVYFQMYSQKPEDTAVYDCNAAGWYWQAEGYDYWGQGTQVTVSS | low polyreactivity
QVQLVESGGGLVQAGGSLRLSCAASGITFITYVMGWYRQAPGKERELVAAISLRGGRTSYADSVKGRFTISRDNAKNTVYLQMNSLKPEDTAVYYCAARAYYTRYDFWGQGTQVTVSS | high polyreactivity
QVQLVESGGGLVQAGGSLSLSCAASGRTFLYNAMGWYRQAPGKERELVAGITQSGSSTYYADSVKGRFTISRDNAKNTVYLQMNSMKPEDTAVYYCAKVLYRRGYKFDYWGQGTQVTVSS | low polyreactivity
QVQLVESGGGLVQAGGSLRLSCAASGRIFRWYAMGWYRQAPGKERELVATISSTGGSTYYADSVKGRFTISRDNAKNTVYLQMNSLKPEDTAVYYCAVDPRGHEGVRYNYWGQGTQVTVSS | low polyreactivity
QVQLVESGGGLVQAGGSLRLSCAASGRTFLNYPMGWYRPAPGKERELVASISSSGARTYYADSVKGRFTISRDNAKNTVYLQMNSLKPEDTAVYFCAVTAGRGGYPQGGVTRGYWGQGTQVTVSS | high polyreactivity
